In the supplement of paper PMC5998384:

Legend:
HeLa Kyoto [1] = assay: solubility change mitosis vs G1/S (difference of NP-40 vs SDS log2 ratios) (log2 ratio difference); higher = more soluble in mitosis
HeLa Kyoto [2] = assay: thermal stability score vs G1/S (z-score of summed log2 fold changes over temperatures); higher = more thermally stable than in G1/S
HeLa Kyoto [3] = assay: solubility in G1/S (NP-40 vs SDS abundance) (log2 ratio); higher = more soluble; conditions: cell cycle stage: G1/S
[4] = cell cycle stage: early G1 (4.5 h after nocodazole release)
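For solubility change mitosis vs G1/S (difference of NP-40 vs SDS log2 ratios) in this document: synchronized HeLa Kyoto cells (double thymidine block for G1/S, nocodazole release for mitosis), protein amounts in NP-40 versus SDS lysates quantified by mass spectrometry, three biological replicates.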
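For solubility in G1/S (NP-40 vs SDS abundance) in this document: HeLa Kyoto cells arrested at G1/S by double thymidine block, proteins quantified by TMT10plex mass spectrometry in mild NP-40 versus SDS extracts, three biological replicates.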
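For thermal stability score vs G1/S (z-score of summed log2 fold changes over temperatures) in this document: synchronized HeLa Kyoto cells, proteins quantified by TMT10plex mass spectrometry, three biological replicates, mitosis taken 0.5 h after nocodazole release, G1/S directly after double thymidine block.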

Row | Substance | solubility change mitosis (log2) (HeLa Kyoto [1]) | thermal stability score (HeLa Kyoto [2]; [4]) | thermal stability score (HeLa Kyoto [2]; cell cycle stage: mitosis) | solubility in G1/S (log2) (HeLa Kyoto [3])
1 | MKRRNADCSKLRRPLKRNRITEGIYGSTFLYLKFLVVWALVLLADFVLEFRFEYLWPFWLFIRSVYDSFRYQGLAFSVFFVCVAFTSNIICLLFIPIQWLFFAASTYVWVQYVWHTERGVCLPTVSLWILFVYIEAAIRFKDLKNFHVDLCRPFAAHCIGYPVVTLGFGFKSYVSYKMRLRKQKEVQKENEFYMQLLQQALPPEQQMLQKQEKEAEEAAKGLPDMDSSILIHHNGGIPANKKLSTTLPEIEYREKGKEKDKDAKKHNLGINNNNILQPVDSKIQEIEYMENHINSKRLNNDLVGSTENLLKEDSCTASSKNYKNASGVVNSSPRSHSATNGSIPSSSSKNEKKQKCTSKSPSTHKDLMENCIPNNQLSKPDALVRLEQDIKKLKADLQASRQVEQELRSQISSLSSTERGIRSEMGQLRQENELLQNKLHNAVQMKQKDKQNISQLEKKLKAEQEARSFVEKQLMEEKKRKKLEEATAARAVAFAAASRGECTETLRNRIRELEAEGKKLTMDMKVKEDQIRELELKVQELRKYKENEKDTEVLMSALSAMQDKTQHLENSLSAETRIKLDLFSALGDAKRQLEIAQGQILQKDQEIKDLKQKIAEVMAVMPSITYSAATSPLSPVSPHYSSKFVETSPSGLDPNASVYQPLKK [TMEM57] | 0.256 | -1.41 | -2.47 | -0.363
2 | MLKKQSAGLVLWGAILFVAWNALLLLFFWTRPAPGRPPSVSALDGDPASLTREVIRLAQDAEVELERQRGLLQQIGDALSSQRGRVPTAAPPAQPRVPVTPAPAVIPILVIACDRSTVRRCLDKLLHYRPSAELFPIIVSQDCGHEETAQAIASYGSAVTHIRQPDLSSIAVPPDHRKFQGYYKIARHYRWALGQVFRQFRFPAAVVVEDDLEVAPDFFEYFRATYPLLKADPSLWCVSAWNDNGKEQMVDASRPELLYRTDFFPGLGWLLLAELWAELEPKWPKAFWDDWMRRPEQRQGRACIRPEISRTMTFGRKGVSHGQFFDQHLKFIKLNQQFVHFTQLDLSYLQREAYDRDFLARVYGAPQLQVEKVRTNDRKELGEVRVQYTGRDSFKAFAKALGVMDDLKSGVPRAGYRGIVTFQFRGRRVHLAPPLTWEGYDPSWN [MGAT1] | 0.0597 | 0.289 | 0.0296 | -0.0579
3 | MNPIVVVHGGGAGPISKDRKERVHQGMVRAATVGYGILREGGSAVDAVEGAVVALEDDPEFNAGCGSVLNTNGEVEMDASIMDGKDLSAGAVSAVQCIANPIKLARLVMEKTPHCFLTDQGAAQFAAAMGVPEIPGEKLVTERNKKRLEKEKHEKGAQKTDCQKNLGTVGAVALDCKGNVAYATSTGGIVNKMVGRVGDSPCLGAGGYADNDIGAVSTTGHGESILKVNLARLTLFHIEQGKTVEEAADLSLGYMKSRVKGLGGLIVVSKTGDWVAKWTSTSMPWAAAKDGKLHFGIDPDDTTITDLP [ASRGL1] | -0.207 | -1.89 | -2.25 | 0.282
4 | MPDZ | 0.0126 | 0.637 | 0.641 | -0.0106
5 | MPEEAGFPPAKRFRPGSGPPSRAGSFPPGRQVVMLLTAGSGGRGGGGGRRQQPPLAQPSASPYPEAVELQRRSLPIFQARGQLLAQLRNLDNAVLIGETGSGKTTQIPQYLYEGGISRQGIIAVTQPRRVAAISLATRVSDEKRTELGKLVGYTVRFDDVTSEDTRIKFLTDGMLLREAISDSLLRKYSCVILDEAHERTIHTDVLFGVVKAAQKRRKELGKLPLKVIVMSATMDVDLFSQYFNGAPVLYLEGRQHPIQVFYTKQPQNDYLHAALVSVFQIHQEAPSSQDILVFLTGQEEIEAMSKTCRDIAKHLPDGCPAMLVLPLYASLPYAQQLRVFQGAPKGYRKVIISTNIAETSITITGIKYVVDTGMVKAKKYNPDSGLEVLAVQRVSKTQAWQRTGRAGREDSGICYRLYTEDEFEKFDKMTVPEIQRCNLASVMLQLLAMKVPNVLTFDFMSKPSPDHIQAAIAQLDLLGALEHKDDQLTLTPMGRKMAAFPLEPKFAKTILMSPKFHCTEEILTIVSLLSVDSVLHNPPSRREEVQGVRKKFISSEGDHMTLLNIYRTFKNLGGNKDWCKENFVNSKNMTLVAEVRAQLRDICLKMSMPIASSRGDVESVRRCLAHSLFMSTAELQPDGTYATTDTHQPVAIHPSSVLFHCKPACVVYTELLYTNKCYMRDLCVIDAQWLYEAAPEYFRRKLRTARN [DHX33] | 0.463 | 0.61 | 0.974 | -1.03
6 | MPGPQGGRGAATMSLGKLSPVGWVSSSQGKRRLTADMISHPLGDFRHTMHVGRGGDVFGDTSFLSNHGGSSGSTHRSPRSFLAKKLQLVRRVGAPPRRMASPPAPSPAPPAISPIIKNAISLPQLNQAAYDSLVVGKLSFDSSPTSSTDGHSSYGLDSGFCTISRLPRSEKPHDRDRDGSFPSEPGLRRSDSLLSFRLDLDLGPSLLSELLGVMSLPEAPAAETPAPAANPPAPTANPTGPAANPPATTANPPAPAANPSAPAATPTGPAANPPAPAASSTPHGHCPNGVTAGLGPVAEVKSSPVGGGPRGPAGPALGRHWGAGWDGGHHYPEMDARQERVEVLPQARASWESLDEEWRAPQAGSRTPVPSTVQANTFEFADAEEDDEVKV [CDC42EP1] | 0.0734 | -0.817 | -1.35 | 0.536
7 | MPLVVFCGLPYSGKSRRAEELRVALAAEGRAVYVVDDAAVLGAEDPAVYGDSAREKALRGALRASVERRLSRHDVVILDSLNYIKGFRYELYCLARAARTPLCLVYCVRPGGPIAGPQVAGANENPGRNVSVSWRPRAEEDGRAQAAGSSVLRELHTADSVVNGSAQADVPKELEREESGAAESPALVTPDSEKSAKHGSGAFYSPELLEALTLRFEAPDSRNRWDRPLFTLVGLEEPLPLAGIRSALFENRAPPPHQSTQSQPLASGSFLHQLDQVTSQVLAGLMEAQKSAVPGDLLTLPGTTEHLRFTRPLTMAELSRLRRQFISYTKMHPNNENLPQLANMFLQYLSQSLH [KTI12] | -0.00671 | -1.22 | -1.26 | 0.526
8 | MPTNFTVVPVEAHADGGGDETAERTEAPGTPEGPEPERPSPGDGNPRENSPFLNNVEVEQESFFEGKNMALFEEEMDSNPMVSSLLNKLANYTNLSQGVVEHEEDEESRRREAKAPRMGTFIGVYLPCLQNILGVILFLRLTWIVGVAGVLESFLIVAMCCTCTMLTAISMSAIATNGVVPAGGSYYMISRSLGPEFGGAVGLCFYLGTTFAGAMYILGTIEIFLTYISPGAAIFQAEAAGGEAAAMLHNMRVYGTCTLVLMALVVFVGVKYVNKLALVFLACVVLSILAIYAGVIKSAFDPPDIPVCLLGNRTLSRRSFDACVKAYGIHNNSATSALWGLFCNGSQPSAACDEYFIQNNVTEIQGIPGAASGVFLENLWSTYAHAGAFVEKKGVPSVPVAEESRASALPYVLTDIAASFTLLVGIYFPSVTGIMAGSNRSGDLKDAQKSIPTGTILAIVTTSFIYLSCIVLFGACIEGVVLRDKFGEALQGNLVIGMLAWPSPWVIVIGSFFSTCGAGLQSLTGAPRLLQAIARDGIVPFLQVFGHGKANGEPTWALLLTVLICETGILIASLDSVAPILSMFFLMCYLFVNLACAVQTLLRTPNWRPRFKFYHWTLSFLGMSLCLALMFICSWYYALSAMLIAGCIYKYIEYRGAEKEWGDGIRGLSLNAARYALLRVEHGPPHTKNWRPQVLVMLNLDAEQAVKHPRLLSFTSQLKAGKGLTIVGSVLEGTYLDKHMEAQRAEENIRSLMSTEKTKGFCQLVVSSSLRDGMSHLIQSAGLGGLKHNTVLMAWPASWKQEDNPFSWKNFVDTVRDTTAAHQALLVAKNVDSFPQNQERFGGGHIDVWWIVHDGGMLMLLPFLLRQHKVWRKCRMRIFTVAQVDDNSIQMKKDLQMFLYHLRISAEVEVVEMVENDISAFTYERTLMMEQRSQMLKQMQLSKNEQEREAQLIHDRNTASHTAAAARTQAPPTPDKVQMTWTREKLIAEKYRSRDTSLSGFKDLFSMKPDQSNVRRMHTAVKLNGVVLNKSQDAQLVLLNMPGPPKNRQGDENYMEFLEVLTEGLNRVLLVRGGGREVITIYS [SLC12A7] | -0.0793 | 0.109 | 0.0218 | -0.103
9 | MPV17L2 | -0.154 | -0.139 | -0.811 | -0.0909
10 | MSQYTEKEPAAMDQESGKAVWPKPAGGYQTITGRRYGRRHAYVSFKPCMTRHERSLGRAGDDYEVLELDDVPKENSSGSSPLDQVDSSLPSEPIFEKSETEIPTCGSALNQTTESSQSFVAVHHSEEGRDTLGSSTNLHNHSEGEYIPGACSASSVQNGIALVHTDSYDPDGKHGEDNDHLQLSAEVVEGSRYQESLGNTVFELENREAEAYTGLSPPVPSFNCEVRDEFEELDSVPLVKSSAGDTEFVHQNSQEIQRSSQDEMVSTKQQNNTSQERQTEHSPEDAACGPGHICSEQNTNDREKNHGSSPEQVVRPKVRKLISSSQVDQETGFNRHEAKQRSVQRWREALEVEESGSDDLLIKCEEYDGEHDCMFLDPPYSRVITQRETENNQMTSESGATAGRQEVDNTFWNGCGDYYQLYDKDEDSSECSDGEWSASLPHRFSGTEKDQSSSDESWETLPGKDENEPELQSDSSGPEEENQELSLQEGEQTSLEEGEIPWLQYNEVNESSSDEGNEPANEFAQPAFMLDGNNNLEDDSSVSEDLDVDWSLFDGFADGLGVAEAISYVDPQFLTYMALEERLAQAMETALAHLESLAVDVEVANPPASKESIDGLPETLVLEDHTAIGQEQCCPICCSEYIKDDIATELPCHHFFHKPCVSIWLQKSGTCPVCRRHFPPAVIEASAAPSSEPDPDAPPSNDSIAEAP [PJA2] | 0.121 | -3.9 | -1.5 | -0.111
11 | MSSEMLPAFIETSNVDKKQGINEDQEESQKPRLGEGCEPISKRQMKKLIKQKQWEEQRELRKQKRKEKRKRKKLERQCQMEPNSDGHDRKRVRRDVVHSTLRLIIDCSFDHLMVLKDIKKLHKQIQRCYAENRRALHPVQFYLTSHGGQLKKNMDENDKGWVNWKDIHIKPEHYSELIKKEDLIYLTSDSPNILKELDESKAYVIGGLVDHNHHKGLTYKQASDYGINHAQLPLGNFVKMNSRKVLAVNHVFEIILEYLETRDWQEAFFTILPQRKGAVPTDKACESASHDNQSVRMEEGGSDSDSSEEEYSRNELDSPHEEKQDKENHTESTVNSLPH [TRMT10A] | -0.0488 | 0.883 | 0.552 | -0.0218
12 | MSSKQEIMSDQRFRRVAKDPRFWEMPEKDRKVKIDKRFRAMFHDKKFKLNYAVDKRGRPISHSTTEDLKRFYDLSDSDSNLSGEDSKALSQKKIKKKKTQTKKEIDSKNLVEKKKETKKANHKGSENKTDLDNSIGIKKMKTSCKFKIDSNISPKKDSKEFTQKNKKEKKNIVQHTTDSSLEEKQRTLDSGTSEIVKSPRIECSKTRREMQSVVQLIMTRDSDGYENSTDGEMCDKDALEEDSESVSEIGSDEESENEITSVGRASGDDDGSEDDEEEDEDEEEDEDEDSEDDDKSDSGPDLARGKGNIETSSEDEDDTADLFPEESGFEHAWRELDKDAPRADEITRRLAVCNMDWDRLKAKDLLALFNSFKPKGGVIFSVKIYPSEFGKERMKEEQVQGPVELLSIPEDAPEKDWTSREKLRDYQFKRLKYYYAVVDCDSPETASKIYEDCDGLEFESSCSFIDLRFIPDDITFDDEPKDVASEVNLTAYKPKYFTSAAMGTSTVEITWDETDHERITMLNRKFKKEELLDMDFQAYLASSSEDEEEIEEELQGDDGVNVEEDGKTKKSQKDDEEQIAKYRQLLQVIQEKEKKGKENDMEMEIKWVPGLKESAEEMVKNKLEGKDKLTPWEQFLEKKKEKKRLKRKQKALAEEASEEELPSDVDLNDPYFAEEVKQIGINKKSVKSAKDGTSPEEEIEIERQKAEMALLMMDEDEDSKKHFNYNKIVEHQNLSKKKKKQLMKKKELIEDDFEVNVNDARFQAMYTSHLFNLDPSDPNFKKTKAMEKILEEKARQRERKEQELTQAIKKKESEIEKESQRKSIDPALSMLIKSIKTKTEQFQARKKQKVK [ESF1] | 0.656 | 2.5 | 5.59 | -1.21
13 | MSTEGGGRRCQAQVSRRISFSASHRLYSKFLSDEENLKLFGKCNNPNGHGHNYKVVVTVHGEIDPATGMVMNLADLKKYMEEAIMQPLDHKNLDMDVPYFADVVSTTENVAVYIWDNLQKVLPVGVLYKVKVYETDNNIVVYKGE [PTS] | -0.182 | -0.38 | -1.87 | 0.154
